What was measured:
PARP1-Flag = assay: proximity ligation; MiaPaCa-2 cells transfected with PARP1-Flag; mouse anti-Flag and rabbit anti-NUPR1 antibodies; untreated or 24 h with ZZW-115 1.5 uM, 5-FU 10 uM, olaparib 25 uM or 5-FU + olaparib; foci counted with ImageJ

B1: recombinant wild-type NUPR1 (natural protein)
chain: MATFPPATSAPQQPPGPEDEDSSLDESDLYSLAHSYLGGGGRKGRTKREAAANTNRPSPGGHERKLVTKLQNSERKKRGARR
- inhibition of PARP1 enzymatic activity in an acellular PARP1 activity assay with 2 and 4 µM rNUPR1 (26.5% at 2 µM, 48.4% at 4 µM) (recombinant PARP1): 48.4%

B2: NUPR1 (detected with the anti-NUPR1 antibody in MiaPaCa-2 cells) (natural protein)
chain: MATFPPATSAPQQPPGPEDEDSSLDESDLYSLAHSYLGGGGRKGRTKREAAANTNRPSPGGHERKLVTKLQNSERKKRGARR
- PLA foci/cell (cells treated with 5-FU) (PARP1-Flag): 94.7 foci/cell
- PLA foci/cell (cells treated with ZZW-115) (PARP1-Flag): 12.5 foci/cell
- PLA foci/cell (control condition) (PARP1-Flag): 59.5 foci/cell
